# Measured values: article PMC7093598
# Key:
# [1] = biological target: titin N2A construct(s), number of N2A-Us elements not stated for the experiment (human) (UniProt Q8WZ42)
# [2] = biological target: titin N2A construct(s), number of N2A-Us elements not stated for the experiment (human) (UniProt Q8WZ42); remark: listed apart in the source
substance,measurement,setting,value
"CARP (Cardiac Ankyrin Repeat Protein) 106-319, N-terminally truncated construct corresponding to the titin-binding region (from UniProt Q15327 106-319) (domain or fragment)","increase of the Ig domain unfolding force (F unfold, force peaks 1-4) with CARP, AFM force-extension curves at 400 nm/s",[1],20 pN
same,"unfolding rate constant α0 of the Ig domains in the absence of applied force with CARP, from the Bell fit of the force clamp data",[2],0.43 s⁻¹
same,"unfolding rate α of the Ig domains with CARP, AFM force clamp at clamp forces of 100-150 pN; value printed at 100 pN (3.2 s^-1 without CARP)",[2],2.4 s⁻¹
